Test in all cases: diffusion NMR
Series [1] deals with the molecule itself.
Series [2] concerns the molecule itself. The source holds these as a separate data set.
Series [3] deals with the molecule itself. This is another data set of the same source.

Like-named read-outs stand apart in the source and are kept apart here.

B1: Surfactant protein A (SP-A), bovine (natural protein)
chain: not shown
Take B1: the results for the “stoichiometry N” value in “diffusion NMR [1]”, in the series “diffusion NMR [2]” and in “diffusion NMR [3]” were about 9 molecules, about 10 molecules and about 12 molecules, respectively.

Broadly, the stoichiometry N is a count of units in the complex or per binding partner.

These data come from paper PMC3104520 (Biochemistry, 2011).
